Test results published in paper PMC11530598.
pKd: −log10 of the molar value. One block for each substance: values may come before it.

Legend:
[1] = target: tubulin (taxol-stabilized microtubules); experiment: TIRF intensity of HC on microtubules; conditions: reference: HC1-1500 + DYRK1a without ATP
[2] = target: actin (filaments) (UniProt P68135); experiment: TIRF intensity of HC on actin filaments; conditions: reference: HC1-1500 + DYRK1a without ATP
[3] = target: taxol-stabilized microtubules (porcine brain tubulin) (porcine); experiment: TIRF microscopy binding assay (fluorescence intensity on filaments); fluorescent MAP1B constructs in solution on taxol-stabilized microtubules held on the coverslip; titrations for KD (KD of the LC called apparent); 10 nM on WT and subtilisin-digested microtubules in the same chamber; 90 mM Hepes pH 7.4, 150 mM K-acetate, 2 mM Mg-acetate, 1 mM EGTA, 10% glycerol, 10 uM taxol
[4] = target: subtilisin-digested microtubules (porcine brain tubulin without the C-terminal tails) (porcine); experiment: as above
[5] = target: taxol-stabilized microtubules (porcine brain tubulin) (porcine)
[6] = target: taxol-stabilized microtubules (porcine brain tubulin) (porcine); experiment: TIRF microscopy binding assay (fluorescence intensity on filaments); 50 nM bacterially expressed HC^1-1500 on microtubules after incubation with DYRK1a with or without ATP (37 C, 30 min)
[7] = target: actin filaments (rabbit skeletal muscle actin) (rabbit) (UniProt P68135); experiment: TIRF microscopy binding assay (fluorescence intensity on filaments); 50 nM bacterially expressed HC^1-1500 on actin filaments after incubation with DYRK1a with or without ATP (37 C, 30 min)

pKd [3]: 8.82 | percent decrease of fluorescence intensity against WT microtubules [4]: 87%
Substance: MAP1B LC 2203-2464-sfGFP (from UniProt P14873 2203-2464) (domain or fragment)

pKd [3]: 6.73
Substance: sfGFP-MAP1B HC^1-532 (from UniProt P14873 1-532) (domain or fragment)

pKd [3]: 8.96
Substance: sfGFP-MAP1B HC^1-1103 (from UniProt P14873 1-1103) (domain or fragment)

percent reduction of fluorescence intensity on microtubules against the sample without ATP [6]: 21% | percent reduction of fluorescence intensity on actin filaments against the sample without ATP [7]: 75%
Substance: sfGFP-MAP1B HC^1-1500, bacterially expressed, phosphorylated by DYRK1a (from UniProt P14873 1-1500) (domain or fragment)

More lines, now with the values behind:

Substance: MAP1B (heavy chain HC, light chain LC/LC1) HC 1-1500 (from UniProt P14873) HC1-1500 + DYRK1a with ATP
other: percent reduction [1]: 21% | other: percent reduction [2]: 75%

Substance: MAP1B HC MTBD^639-767 (from UniProt P14873 639-767) (domain or fragment)
pKd [3]: 7.87

Substance: MAP1B HC^1-2202-sfGFP (full-length MAP1B heavy chain) (from UniProt P14873 1-2202) (domain or fragment)
pKd [3]: 8.42

Substance: TMR-spastin (truncated human spastin, delta227) (from UniProt Q9UBP0 1-616) (enzyme)
reduction of microtubule fluorescence intensity after 10 min with spastin (severing) in the presence of 10 nM LC-sfGFP; 82% with spastin alone [5]: 19% | reduction of microtubule fluorescence intensity after 10 min with spastin (severing) in the presence of 50 nM sfGFP-HC^1-1500; 82% with spastin alone [5]: 60%

Substance: sfGFP-MAP1B HC^1-1500, bacterially expressed (from UniProt P14873 1-1500) (domain or fragment)
pKd [3]: 8.74 | percent decrease of fluorescence intensity against WT microtubules [4]: 45%
